# Where a chain is given by its changes, count along the chain named.
# B1: CD3B2035 (scFv)
# scFv: QVQLVQSGAEVKKPGSSVKVSCKASGYTFTRSTMHWVKQAPGQGLEWMGYINPSSAYTNYNQKFQGRVTLTADKSTSTAYMELSSLRSEDTAVYYCASPQVHYDYNGFPYWGQGTLVTVSSGGSEGKSSGSGSESKSTGGSEIVLTQSPATLSASPGERVTLSCSASSSVSYMNWYQQKPGQAPRRWIYDSSKLASGVPARFSGSGSGRDYTLTISSLEPEDFAVYYCQQWSRNPPTFGGGTKVEIK
# B2: CD3B2027 (scFv)
# scFv: B1 scFv with M48I, Q182T, A183S, W187L
# B3: CD3B2052 (scFv)
# scFv: B1 scFv with N61A, Q182T, A183S
# B4: CD3B2040 (scFv)
# scFv: B1 scFv with N61A
# B5: CD3B2059 (scFv)
# scFv: B1 scFv with M48I, N61A, A183S, W187L
# B6: CD3B2056 (scFv)
# scFv: B1 scFv with K38R, M48I, A183S, W187L
# B7: CD3B2084 (scFv)
# scFv: B1 scFv with K38R, N61A, W187L
# B8: CD3B2057 (scFv)
# scFv: B1 scFv with K38R, M48I, W187L
# B9: CD3B2047 (scFv)
# scFv: B1 scFv with M48I, A183S, W187L
# B10: CD3B2068 (scFv)
# scFv: B1 scFv with K38R, W187L
# B11: CD3B2070 (scFv)
# scFv: B1 scFv with K38R, Q182T, A183S, W187L
# B12: CD3B2060 (scFv)
# scFv: B1 scFv with M48I, N61A, W187L
# B13: CD3B2062 (scFv)
# scFv: B1 scFv with M48I, N61A, Q182T, A183S, W187L
# B14: CD3B2075 (scFv)
# scFv: B1 scFv with K38R, M48I, N61A, A183S, W187L
# B15: CD3B2028 (scFv)
# scFv: B1 scFv with M48I, Q182T, W187L
# B16: CD3B2032 (scFv)
# scFv: B1 scFv with Q182T, A183S, W187L
# B17: CD3B2083 (scFv)
# scFv: B1 scFv with K38R, N61A, A183S, W187L
# B18: CD3B2066 (scFv)
# scFv: B1 scFv with K38R, Q182T, A183S
# B19: CD3B2049 (scFv)
# scFv: B1 scFv with Q182T, A183S
# B20: CD3B2036 (scFv)
# scFv: B1 scFv with N61A, Q182T
# B21: CD3B2033 (scFv)
# scFv: B1 scFv with Q182T, W187L
# B22: CD3B2029 (scFv)
# scFv: B1 scFv with M48I, A183S
# B23: CD3B2050 (scFv)
# scFv: B1 scFv with A183S, W187L
# B24: CD3B2061 (scFv)
# scFv: B1 scFv with M48I, N61A, Q182T
# B25: CD3B2076 (scFv)
# scFv: B1 scFv with K38R, M48I, N61A, W187L
# B26: CD3B2067 (scFv)
# scFv: B1 scFv with K38R, A183S, W187L
# B27: CD3B2055 (scFv)
# scFv: B1 scFv with K38R, M48I, Q182T, A183S
# B28: CD3B2046 (scFv)
# scFv: B1 scFv with M48I, Q182T, A183S
# B29: CD3B2053 (scFv)
# scFv: B1 scFv with N61A, A183S, W187L
# B30: CD3B2048 (scFv)
# scFv: B1 scFv with M48I, W187L
# B31: CD3B2031 (scFv)
# scFv: B1 scFv with Q182T
# B32: CD3B2026 (scFv)
# scFv: B1 scFv with M48I, Q182T
# B33: CD3B2054 (scFv)
# scFv: B1 scFv with N61A, W187L
# B34: CD3B2074 (scFv)
# scFv: B1 scFv with K38R, M48I, N61A, Q182T, A183S
# Target: T1, TRCW5 antigen (CD3δε-Fc-Avi) (biotinylated (site not stated))
# T1 construct: also called recombinant CD3
# T1 sequence (chain, as listed by the source mutant limits assumed): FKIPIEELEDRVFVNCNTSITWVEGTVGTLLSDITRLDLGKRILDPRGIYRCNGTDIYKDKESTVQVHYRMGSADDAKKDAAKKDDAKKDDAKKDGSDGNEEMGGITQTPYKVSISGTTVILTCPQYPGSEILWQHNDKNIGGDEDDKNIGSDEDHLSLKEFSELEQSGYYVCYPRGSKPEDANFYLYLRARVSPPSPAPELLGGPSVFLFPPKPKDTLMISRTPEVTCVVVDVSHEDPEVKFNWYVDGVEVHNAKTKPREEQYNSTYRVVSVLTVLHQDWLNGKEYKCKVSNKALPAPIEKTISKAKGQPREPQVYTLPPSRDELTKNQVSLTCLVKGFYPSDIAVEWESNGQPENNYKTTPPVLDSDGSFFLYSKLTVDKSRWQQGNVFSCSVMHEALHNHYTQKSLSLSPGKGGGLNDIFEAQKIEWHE
# Assay: ELISA after heat
% Retained 55° C. [%],% Retained 60° C. [%],% Retained 65° C. [%],Binder
110,112,47,B1
104,93,9,B2
112,111,25,B3
107,106,52,B4
112,98,13,B5
101,80,9,B6
108,91,9,B7
92,66,3,B8
106,98,15,B9
103,88,10,B10
107,82,6,B11
107,100,21,B12
110,102,14,B13
103,87,6,B14
104,92,15,B15
106,88,20,B16
104,84,4,B17

% Retained 55° C. [%],% Retained 60° C. [%],% Retained 65° C. [%],Binder
109,109,11,B18
108,105,29,B19
108,105,35,B20
100,84,11,B21
100,97,29,B22
108,102,41,B23
116,107,9,B24
100,82,7,B25
98,63,5,B26
102,96,11,B27
111,113,30,B28
115,112,30,B29
105,95,22,B30
108,104,36,B31
106,98,29,B32
106,100,23,B33
104,101,6,B34

# Target: T2, CD3 on primary human pan T cells (human, UniProt P07766 23-207)
# T2 construct: on cells it stands in the TCR/CD3 complex; also called Pan T-cells (CD3-positive); endogenous CD3
# T2 sequence (P07766 23-207 limits assumed): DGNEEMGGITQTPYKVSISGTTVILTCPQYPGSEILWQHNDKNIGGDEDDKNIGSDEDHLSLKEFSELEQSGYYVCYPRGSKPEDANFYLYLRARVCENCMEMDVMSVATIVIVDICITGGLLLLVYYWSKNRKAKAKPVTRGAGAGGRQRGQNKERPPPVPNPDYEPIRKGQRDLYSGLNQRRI
# Assay: flow cytometry, pan T-cells
# Protocol: ELISA assays for binding to recombinant CD3 (TRCW5, SEQ ID NO: 39) were performed as above. Cell binding was performed using primary human T cell and Jurkat cells by flow cytometry. Briefly, E. coli expressed anti CD3 ScFv supernatants, either at room temperature, or 55° C., 60° C. or 65° C. heat treated samples.
# Pan T-cells (CD3-positive) and Jurkat-CD3-negative cells were prepared by staining Jurkat-CD3-negative cells with CFSE while keeping pan T-cells unstained. Jurkat-CD3-negative cell suspensions were resuspended at 20 million cells per each 50 mL conical tube. Cells were harvested by centrifugation at 400×g for 5 minutes and resuspended in DPBS followed by washing 2× in DPBS. Cells were stained with 1:25,000 dilution for a final dye concentration of 0.02 uM CFSE (2 uL of staining solution to 50 mL of cell suspension). Cells were incubated for 10 minutes at room temperature and centrifuged for 5 minutes at 400×g. After removal of supernatant, 3 mL of HI-FBS were added to the cell pellet, mixed and centrifuged for 5 min at 400×g. Supernatant was removed and cells were resuspended in BD stain buffer at 2×10\hat{ }6 cells/mL and incubated on ice or 4 C protected from light. Human pan T cells were thawed at 37 C and transferred gently into a conical tube containing 15 mL of warm or RT culture media (RPMI+10% FBS). […] Cells were harvested by centrifugation at 400×g for 5 min and resuspended in culture media (RPMI+10% HI-FBS). Pan T-cells (without staining) were prepared at 2×10\hat{ }6 cells/mL in flow staining buffer. Equal volumes of CFSE stained Jurkat-CD3-negative cells and unstained T-cells (CD3-positive) cells were mixed and plated 50 uL/well into assay plates. 50 uL/well neat bacterial supernatant samples and control sample (CD3W36 ScFv) were added to each well and plates were incubated 1 hr at 4 C or. Cells were harvested by centrifugation at 400×g for 4 min and 150 uL staining buffer were added to all wells, followed by centrifugation at 400×g for 4 min to pellet cells. To each well, 150 uL staining buffer were added followed by centrifugation at 400×g for 4 minutes to pellet cells.
"% Binding retained on T-cells, 55° C. [fraction]","% Binding retained on T-cells, 60° C. [fraction]","% Binding retained on T-cells, 65° C. [fraction]","% Binding retained on T-cells, RT [fraction]",Binder
1.06,1.14,0.455,1,B1
1.07,1,0.295,1,B21
1.06,1.08,0.329,1,B22
1.12,1.2,0.543,1,B31

# Source: patent US20250145711A1 (Janssen / Centocor, published 2025)
